According to patent US6380373B1, “Steroid receptor coactivator compositions and methods of use” (Baylor College of Medicine, priority 1995, dated 2002):

Tests used:
[1] = target: T1, E2F (Homo sapiens, UniProt Q01094); experiment: CAT reporter assay E2F/E2F-tk-CAT in HeLa cells; type: cell-based
T1 construct: expressed in transfected cells; host or cells: HeLa
Procedure: (§1) Lipofectin (GibcoBRL) was selected for transfection of Hela cells.
The CAT activity of the reporter was determined.

[2] = test system: GAL4-VP16; conditions: HeLa cells, UASG element
Procedure: Cells were maintained in Dulbecco's modified Eagle's medium supplemented with 10% (vol/vol) fetal calf serum (Smith, C. L. et al., (1993), Proc. Natl. Acad. Sci. USA 90, 6120-6124). The day before transfection, 10^6 cells were seeded in 100 mm dishes and 4-6 h later switched serum-free medium supplemented with Nutridoma-SR (Boehringer Mannhein). When ER was used for transfections, phenol-red-free medium was used (Smith, C. L. et al., (1993), Proc. Natl. Acad. Sci. USA 90, 6120-6124). HeLa cells were transfected with mammalian expression vectors encoding steroid receptors or other transcription factors along with 5 μg of CAT reporter. Lipofectin (GibcoBRL) was selected for transfection of Hela cells.
Cells were then harvested and proteins prepared as whole-cell extracts by freeze-thaw lysis. The reporter CAT activity in the extract was determined using 100 uCi of [^14C]-chloramphenicol and 4 mM acetyl coenzyme A as substrate and standardized by protein content. Activity of the extract was calculated by determining the percentage of conversion of [^14C]-chloramphenicol to the mono and diacetylated forms (Ausubel, F. M., et al., (1992), Short Protocols In Molecular Biology, New York: Greene Publishing Associates and John Wiley & Sons). […]

[3] = target: T2, RXR (Mus musculus, UniProt P28704); experiment: CAT reporter assay RXR/DR1-tk-CAT in HeLa cells; type: cell-based; conditions: 3 μg SRC-1, 9-cis retinoic acid 2×10^−8 M
T2 construct: expressed in transfected cells; host or cells: HeLa
T2 sequence (P28704 1-520): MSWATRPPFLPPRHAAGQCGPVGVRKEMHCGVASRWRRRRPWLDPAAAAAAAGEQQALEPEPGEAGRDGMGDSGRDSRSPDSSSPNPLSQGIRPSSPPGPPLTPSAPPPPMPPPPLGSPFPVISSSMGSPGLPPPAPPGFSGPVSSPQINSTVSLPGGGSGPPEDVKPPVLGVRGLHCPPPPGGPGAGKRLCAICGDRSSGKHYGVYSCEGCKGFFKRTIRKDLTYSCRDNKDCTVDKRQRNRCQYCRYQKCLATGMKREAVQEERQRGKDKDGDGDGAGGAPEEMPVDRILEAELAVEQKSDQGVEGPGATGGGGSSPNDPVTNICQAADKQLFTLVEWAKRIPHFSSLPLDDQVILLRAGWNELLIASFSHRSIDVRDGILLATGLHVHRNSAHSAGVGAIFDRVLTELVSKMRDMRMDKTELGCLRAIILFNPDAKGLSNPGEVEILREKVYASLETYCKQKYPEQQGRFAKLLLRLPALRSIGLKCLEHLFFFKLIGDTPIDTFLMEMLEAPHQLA
Procedure: (§2) Biol. 13, 6501-6508), Sp1 and Sp1-tk-CAT (Courey, A. J. and Tjian, R. (1988), Cell 55, 887-898), CREB and CRE-tk-CAT (Chrivia, J. C. et al., (1993), Nature 365, 855) and GAL4VP16 and 17mer-tk-CAT (Baniahmad, A. et al., (1992), EMBO J. 11, 1015-1023) have been previously described and the above references are incorporated herein by reference in their entirety, including any drawings.
as §1
(§3) HeLa cells were cotransfected with 0.5 μg of cDNAs encoding various steroid receptors indicated and 5 μg of their cognates HREs containing reporters, including PR/PRE2-TATA-CAT, ER/ERE2-TATA-CAT, GR/PRE2-TATA-CAT, TR-/DR4-tk-CAT and RXR/DR1-tk-CAT, along with 3 μg of SRC-1 or empty expression vector. Cells were then treated with their corresponding ligands (PR:R5020, ER:estradiol, GR:dexamethasone, TR:Triac, RXR:9-cis retinoic acid) at a concentration of 2×10^−8M. The CAT activity of the reporter was determined using 14 μg of protein extract.

[4] = target: T3, GR (Homo sapiens, UniProt P04150); experiment: CAT reporter assay GR/PRE2-TATA-CAT in HeLa cells; type: cell-based; conditions: 3 μg SRC-1, dexamethasone 2×10^−8 M
T3 construct: expressed in transfected cells; host or cells: HeLa
T3 sequence (P04150 1-777): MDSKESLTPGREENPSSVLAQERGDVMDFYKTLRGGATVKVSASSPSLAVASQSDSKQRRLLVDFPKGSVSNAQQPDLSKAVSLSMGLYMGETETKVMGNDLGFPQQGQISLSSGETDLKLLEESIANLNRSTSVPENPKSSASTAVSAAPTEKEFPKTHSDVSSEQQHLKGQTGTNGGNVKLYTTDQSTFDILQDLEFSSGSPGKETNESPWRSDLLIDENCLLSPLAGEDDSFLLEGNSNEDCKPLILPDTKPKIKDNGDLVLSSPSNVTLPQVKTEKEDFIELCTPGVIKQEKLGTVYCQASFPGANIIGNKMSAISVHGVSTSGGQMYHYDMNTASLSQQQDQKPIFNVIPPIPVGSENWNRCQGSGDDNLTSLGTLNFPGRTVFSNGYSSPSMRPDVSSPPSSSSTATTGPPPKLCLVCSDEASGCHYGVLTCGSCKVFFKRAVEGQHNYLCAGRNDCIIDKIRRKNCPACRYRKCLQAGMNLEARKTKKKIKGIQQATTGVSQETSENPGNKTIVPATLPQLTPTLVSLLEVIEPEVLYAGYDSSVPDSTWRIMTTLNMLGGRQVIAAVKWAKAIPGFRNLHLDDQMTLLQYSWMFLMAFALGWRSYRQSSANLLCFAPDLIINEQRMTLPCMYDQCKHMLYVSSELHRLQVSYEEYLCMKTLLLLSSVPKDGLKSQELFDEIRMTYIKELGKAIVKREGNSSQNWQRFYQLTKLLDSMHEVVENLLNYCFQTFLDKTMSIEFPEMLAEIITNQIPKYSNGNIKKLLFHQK
Procedure: as §2, §1, §3

T1 sequence (Q01094 whole entry): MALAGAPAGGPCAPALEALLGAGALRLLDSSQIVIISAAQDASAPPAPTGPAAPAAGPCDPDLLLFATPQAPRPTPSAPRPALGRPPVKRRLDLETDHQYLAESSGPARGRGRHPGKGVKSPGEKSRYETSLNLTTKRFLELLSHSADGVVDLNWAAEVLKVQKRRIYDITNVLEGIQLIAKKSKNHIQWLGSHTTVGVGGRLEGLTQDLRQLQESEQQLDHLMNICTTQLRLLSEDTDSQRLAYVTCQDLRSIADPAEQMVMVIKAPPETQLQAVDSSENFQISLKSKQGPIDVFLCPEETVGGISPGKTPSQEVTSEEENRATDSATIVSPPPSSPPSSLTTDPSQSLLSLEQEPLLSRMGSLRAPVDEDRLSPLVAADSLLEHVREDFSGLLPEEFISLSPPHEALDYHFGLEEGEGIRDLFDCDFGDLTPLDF

B1: steroid receptor coactivator-one (SRC-1), full-length (protein)
chain: MSIPRVNPSVNPSISPAHGVARSSTLPPSNSNMVSTRINRQQSSDLHSSSHSNSSNSQGSFGCSPGSQIVANVALNKGQASSQSSKPSLNLNNPPMEGTGISLAQFMSPRRQVTSGLATRPRMPNNSFPPNISTLSSPVGMTSSACNNNNRSYSNIPVTSLQGMNEGPNNSVGFSASSPVLRQMSSQNSPSRLNIQPAKAESKDNKEIASTLNEMIQSDNSSSDGKPLDSGLLHNNDRLSDGDSKYSQTSHKLVQLLTTTAEQQLRHADIDTSCKDVLSCTGTSNSASANSSGGSCPSSHSSLTARHKILHRLLQEGSPSDITTLSVEPDKKDSASTSVSVTGQVQGNSSIKLELDASKKKESKDHQLLRYLLDKDEKDLRSTPNLSLDDVKVKVEKKEQMDPCNTNPTPMTKATPEEIKLEAQSQFTADLDQFDQLLPTLEKAAQLPGLCETDRMDGAVTSVTIKSEILPASLQSATARPTSRLNRLPELELEAIDNQFGQPGTGDQIPWTNNTVTAINQSKSEDQCISSQLDELLCPPTTVEGRNDEKALLEQLVSFLSGKDETELAELDRALGIDKLVQGGGLDVLSERFPPQQATPPLIMEERPNLYSQPYSSPFPTANLPSPFQGMVRQKPSLGTMPVQVTPPRGAFSPGMGMQPRQTLNRPPAAPNQLRLQLQQRLQGQQQLIHQNRQAILNQFAATAPVGINMRSGMQQQITPQPPLNAQMLAQRQRELYSQQHRQRQLIQQQRAMLMRQQSFGNNLPPSSGLPVQTGNPRLPQGAPQQFPYPPNYGTNPGTPPASTSPFSQLAANPEASLANRNSMVSRGMTGNIGGQFGTGINPQMQQNVFQYPGAGMVPQGEANFAPSLSPGSSMVPMPIPPPQSSLLQQTPPASGYQSPDMKAWQQGAIGNNNVFSQAVQNQPTPAQPGVYNNMSITVSMAGGNTNVQNMNPMMAQMQMSSLQMPGMNTVCPEQINDPALRHTGLYCNQLSSTDLLKTEADGTQQVQQVQVFADVQCTVNLVGGDPYLNQPGPLGTQKPTSGPQTPQAQQKSLLQQLLTE
For B1, the “effect on E2F transcriptional activity” value [1] was “did not alter”, the “effect on GAL4-VP16 transcriptional activity” value [2] was “enhanced” and the “effect on RXR transcriptional activity” value [3] was “enhance”. For the same molecule, the “effect on GR transcriptional activity” value [4] was “enhance”.
